Results: patent US20200109188A1 (AstraZeneca / MedImmune, published 2020)

Experiments:
[1] = target: HA of A/Fort Monmouth/1/47 (H1N1) virus (influenza A virus); assay: cell-based or functional assay
[2] = target: HA of A/New Jersey/8/76 (H1N1) virus (influenza A virus); assay: cell-based or functional assay
[3] = target: HA of A/Kawasaki/9/86 (H1N1) virus (influenza A virus); assay: cell-based or functional assay
[4] = target: HA of ca A/Texas/36/91 (H1N1) virus (influenza A virus); assay: cell-based or functional assay
[5] = target: HA of ca A/Beijing/262/95 (H1N1) virus (influenza A virus); assay: cell-based or functional assay
[6] = target: HA of ca A/Vietnam/1203/04 (H5N1) virus (influenza A virus); assay: cell-based or functional assay
[7] = target: HA of ca A/Hong Kong/213/03 (H5N1) virus (influenza A virus); assay: cell-based or functional assay
[8] = target: HA of A/Victoria/3/75 (H3N2) virus (influenza A virus, UniProt P03435 17-567); assay: cell-based or functional assay
Chain of HA of A/Victoria/3/75 (H3N2) virus (P03435 17-567 limits assumed): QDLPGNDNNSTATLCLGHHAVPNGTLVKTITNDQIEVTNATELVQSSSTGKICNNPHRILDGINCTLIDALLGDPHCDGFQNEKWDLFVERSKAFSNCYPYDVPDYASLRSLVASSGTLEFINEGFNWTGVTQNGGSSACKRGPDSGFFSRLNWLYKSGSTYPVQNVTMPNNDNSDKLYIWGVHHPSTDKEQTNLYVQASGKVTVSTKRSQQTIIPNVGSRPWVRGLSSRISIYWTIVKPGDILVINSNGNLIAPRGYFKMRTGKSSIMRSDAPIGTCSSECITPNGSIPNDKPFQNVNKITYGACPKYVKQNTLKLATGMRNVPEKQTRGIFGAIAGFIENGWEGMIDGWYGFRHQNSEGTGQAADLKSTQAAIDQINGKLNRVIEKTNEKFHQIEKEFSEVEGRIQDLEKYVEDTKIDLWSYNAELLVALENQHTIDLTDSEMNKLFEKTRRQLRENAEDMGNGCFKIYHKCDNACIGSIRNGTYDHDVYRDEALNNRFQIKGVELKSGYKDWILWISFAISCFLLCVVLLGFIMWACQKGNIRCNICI

[9] = target: HA of H3-LA87 (A/Los Angeles/7/09 (H3N2)) virus (influenza A virus); assay: cell-based or functional assay
[10] = target: HA of ca A/Panama/2007/99 (H3N2) virus (influenza A virus); assay: cell-based or functional assay
[11] = target: HA of A/Wyoming/03/03 (H3N2) virus (influenza A virus); assay: cell-based or functional assay
[12] = target: HA of ca A/Brit. Columbia/CN-6/04 (H7N3-LP) virus (influenza A virus); assay: cell-based or functional assay
[13] = target: HA subtype H12 (A/duck/Alberta/60/76 (H12N5)) on HEK cells (influenza A virus, UniProt P03446 17-564); assay: flow cytometry, HA-transfected HEK cells
Chain of HA subtype H12 (A/duck/Alberta/60/76 (H12N5)) on HEK cells (P03446 17-564): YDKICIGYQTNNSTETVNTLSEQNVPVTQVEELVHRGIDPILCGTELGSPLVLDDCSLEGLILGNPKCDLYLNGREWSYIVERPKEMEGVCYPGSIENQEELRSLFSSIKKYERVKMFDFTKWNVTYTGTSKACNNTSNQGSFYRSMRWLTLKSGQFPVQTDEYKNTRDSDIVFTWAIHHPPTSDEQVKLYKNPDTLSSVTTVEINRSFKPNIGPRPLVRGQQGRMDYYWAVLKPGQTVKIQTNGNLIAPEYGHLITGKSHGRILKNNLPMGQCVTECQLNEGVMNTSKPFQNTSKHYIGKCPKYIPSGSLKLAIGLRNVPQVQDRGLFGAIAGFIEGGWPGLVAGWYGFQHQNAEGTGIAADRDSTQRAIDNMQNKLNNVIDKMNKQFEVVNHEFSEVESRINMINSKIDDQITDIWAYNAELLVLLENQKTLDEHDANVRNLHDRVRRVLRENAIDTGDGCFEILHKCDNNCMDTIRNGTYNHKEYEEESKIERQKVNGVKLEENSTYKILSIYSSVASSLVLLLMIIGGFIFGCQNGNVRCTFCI

B1: Antibody 3 (antibody, V domains shown)
VH: QVQLQESGPGLVKPSQTLSLTCAISGDSVSSNNAVWNWIRQSPSRGLEWLGRTYYRSKWYNDYAESVKSRITVNPDTSKNQFSLHLKSVTPEDTAVFYCVRSGHITVFGVNVDAFDMWGQGTMVTVSS
VL: DIQMTQSPSSLSASVGDRVTITCRTSQSLSSYLHWYQQKPGKAPKLLIYAASSLQSGVPSRFSGSGSGTDFTLTISSLQPEDFATYYCQQSRTFGQGTKVEIK
Neutralization IC50, H1-FM47 [1]: 0.92 µg/mL | Neutralization IC50, H1-NJ76 [2]: 1.41 µg/mL | Neutralization IC50, H1-Kaw86 [3]: 0.58 µg/mL | Neutralization IC50, H1-TX91 [4]: 0.6 µg/mL | Neutralization IC50, H1-BJ95 [5]: 3.41 µg/mL | Neutralization IC50, H5-VM04 [6]: 2.11 µg/mL | Neutralization IC50, H5-HK03 [7]: 4.64 µg/mL | Neutralization IC50, H3-Vic75 [8]: 0.75 µg/mL | Neutralization IC50, H3-LA87 [9]: 4.19 µg/mL | Neutralization IC50, H3-Pa99 [10]: 17.7 µg/mL | Neutralization IC50, H3-Wy03 [11]: 0.63 µg/mL | Neutralization IC50, H7-BC04 [12]: 4.72 µg/mL | binding result [13]: no binding (tested: 5 ug/ml)
